According to patent US20200131230A1 (published 2020):
Positions of bridges follow the written chain, without caps; N, C: chain ends. Non-standard residues stand in square brackets, D forms with d. 2Nal = N[C@@H](Cc1ccc2ccccc2c1)C(=O)O; Pen = CC(C)(S)[C@H](N)C(=O)O; Phg = N[C@H](C(=O)O)c1ccccc1; Nle = CCCC[C@H](N)C(=O)O; HCt = not defined here; MS = not defined here

B1: Compound 79 (peptide)
peptide: {CH2CO}-[2Nal]ISGRDW[Nle]KWV[Pen]-NH2
modifications: thioether N-12
SMILES: CCCC[C@@H]1NC(=O)[C@H](Cc2c[nH]c3ccccc23)NC(=O)[C@H](CC(=O)O)NC(=O)[C@H](CCCNC(=N)N)NC(=O)CNC(=O)[C@H](CO)NC(=O)[C@H]([C@@H](C)CC)NC(=O)[C@H](Cc2ccc3ccccc3c2)NC(=O)CSC(C)(C)[C@@H](C(N)=O)NC(=O)[C@H](C(C)C)NC(=O)[C@H](Cc2c[nH]c3ccccc23)NC(=O)[C@H](CCCCN)NC1=O
B2: Compound 98 (peptide)
peptide: {CH2CO}-[2Nal]RSGKNWVVWVC-NH2
modifications: thioether N-12
SMILES: CC(C)[C@@H]1NC(=O)[C@H](Cc2c[nH]c3ccccc23)NC(=O)[C@H](C(C)C)NC(=O)[C@H](C(C)C)NC(=O)[C@H](Cc2c[nH]c3ccccc23)NC(=O)[C@H](CC(N)=O)NC(=O)[C@H](CCCCN)NC(=O)CNC(=O)[C@H](CO)NC(=O)[C@H](CCCNC(=N)N)NC(=O)[C@H](Cc2ccc3ccccc3c2)NC(=O)CSC[C@@H](C(N)=O)NC1=O
B3: Compound 103 (peptide)
peptide: {CH2CO}-[2Nal]RSGKNW[Nle][Phg]WVC-NH2
modifications: thioether N-12
SMILES: CCCC[C@@H]1NC(=O)[C@H](Cc2c[nH]c3ccccc23)NC(=O)[C@H](CC(N)=O)NC(=O)[C@H](CCCCN)NC(=O)CNC(=O)[C@H](CO)NC(=O)[C@H](CCCNC(=N)N)NC(=O)[C@H](Cc2ccc3ccccc3c2)NC(=O)CSC[C@@H](C(N)=O)NC(=O)[C@H](C(C)C)NC(=O)[C@H](Cc2c[nH]c3ccccc23)NC(=O)[C@H](c2ccccc2)NC1=O
B4: Compound 94 (peptide)
peptide: {CH2CO}-F[2Nal]ISGKDW[Nle]RWVC-NH2
modifications: thioether N-13
SMILES: CCCC[C@@H]1NC(=O)[C@H](Cc2c[nH]c3ccccc23)NC(=O)[C@H](CC(=O)O)NC(=O)[C@H](CCCCN)NC(=O)CNC(=O)[C@H](CO)NC(=O)[C@H]([C@@H](C)CC)NC(=O)[C@H](Cc2ccc3ccccc3c2)NC(=O)[C@H](Cc2ccccc2)NC(=O)CSC[C@@H](C(N)=O)NC(=O)[C@H](C(C)C)NC(=O)[C@H](Cc2c[nH]c3ccccc23)NC(=O)[C@H](CCCNC(=N)N)NC1=O
B5: Compound 82 (peptide)
peptide: {CH2CO}-L[2Nal]ISGRDW[Nle]KWVC-NH2
modifications: thioether N-13
SMILES: CCCC[C@@H]1NC(=O)[C@H](Cc2c[nH]c3ccccc23)NC(=O)[C@H](CC(=O)O)NC(=O)[C@H](CCCNC(=N)N)NC(=O)CNC(=O)[C@H](CO)NC(=O)[C@H]([C@@H](C)CC)NC(=O)[C@H](Cc2ccc3ccccc3c2)NC(=O)[C@H](CC(C)C)NC(=O)CSC[C@@H](C(N)=O)NC(=O)[C@H](C(C)C)NC(=O)[C@H](Cc2c[nH]c3ccccc23)NC(=O)[C@H](CCCCN)NC1=O
B6: Compound 100 (peptide)
peptide: {CH2CO}-[2Nal]RSGHNW[Nle]VWVC-NH2
modifications: thioether N-12
SMILES: CCCC[C@@H]1NC(=O)[C@H](Cc2c[nH]c3ccccc23)NC(=O)[C@H](CC(N)=O)NC(=O)[C@H](Cc2c[nH]cn2)NC(=O)CNC(=O)[C@H](CO)NC(=O)[C@H](CCCNC(=N)N)NC(=O)[C@H](Cc2ccc3ccccc3c2)NC(=O)CSC[C@@H](C(N)=O)NC(=O)[C@H](C(C)C)NC(=O)[C@H](Cc2c[nH]c3ccccc23)NC(=O)[C@H](C(C)C)NC1=O
B7: Compound 85 (peptide)
peptide: {CH2CO}-T[2Nal]ISGRDW[Nle]KWVC-NH2
modifications: thioether N-13
SMILES: CCCC[C@@H]1NC(=O)[C@H](Cc2c[nH]c3ccccc23)NC(=O)[C@H](CC(=O)O)NC(=O)[C@H](CCCNC(=N)N)NC(=O)CNC(=O)[C@H](CO)NC(=O)[C@H]([C@@H](C)CC)NC(=O)[C@H](Cc2ccc3ccccc3c2)NC(=O)[C@H]([C@@H](C)O)NC(=O)CSC[C@@H](C(N)=O)NC(=O)[C@H](C(C)C)NC(=O)[C@H](Cc2c[nH]c3ccccc23)NC(=O)[C@H](CCCCN)NC1=O
B8: Compound 89 (peptide)
peptide: {CH2CO}-W[2Nal]ISGRDW[Nle]KWVC-NH2
modifications: thioether N-13
SMILES: CCCC[C@@H]1NC(=O)[C@H](Cc2c[nH]c3ccccc23)NC(=O)[C@H](CC(=O)O)NC(=O)[C@H](CCCNC(=N)N)NC(=O)CNC(=O)[C@H](CO)NC(=O)[C@H]([C@@H](C)CC)NC(=O)[C@H](Cc2ccc3ccccc3c2)NC(=O)[C@H](Cc2c[nH]c3ccccc23)NC(=O)CSC[C@@H](C(N)=O)NC(=O)[C@H](C(C)C)NC(=O)[C@H](Cc2c[nH]c3ccccc23)NC(=O)[C@H](CCCCN)NC1=O
B9: Compound 87 (peptide)
peptide: {CH2CO}-F[2Nal]ISGRDW[Nle]KWVC-NH2
modifications: thioether N-13
SMILES: CCCC[C@@H]1NC(=O)[C@H](Cc2c[nH]c3ccccc23)NC(=O)[C@H](CC(=O)O)NC(=O)[C@H](CCCNC(=N)N)NC(=O)CNC(=O)[C@H](CO)NC(=O)[C@H]([C@@H](C)CC)NC(=O)[C@H](Cc2ccc3ccccc3c2)NC(=O)[C@H](Cc2ccccc2)NC(=O)CSC[C@@H](C(N)=O)NC(=O)[C@H](C(C)C)NC(=O)[C@H](Cc2c[nH]c3ccccc23)NC(=O)[C@H](CCCCN)NC1=O
B10: Compound 66 (peptide)
peptide: {CH2CO}-FISGKNWVSWVC-NH2
modifications: thioether N-12
SMILES: CC[C@H](C)[C@@H]1NC(=O)[C@H](Cc2ccccc2)NC(=O)CSC[C@@H](C(N)=O)NC(=O)[C@H](C(C)C)NC(=O)[C@H](Cc2c[nH]c3ccccc23)NC(=O)[C@H](CO)NC(=O)[C@H](C(C)C)NC(=O)[C@H](Cc2c[nH]c3ccccc23)NC(=O)[C@H](CC(N)=O)NC(=O)[C@H](CCCCN)NC(=O)CNC(=O)[C@H](CO)NC1=O
B11: Compound 65 (peptide)
peptide: {CH2CO}-FISGRNWVTWVC-NH2
modifications: thioether N-12
SMILES: CC[C@H](C)[C@@H]1NC(=O)[C@H](Cc2ccccc2)NC(=O)CSC[C@@H](C(N)=O)NC(=O)[C@H](C(C)C)NC(=O)[C@H](Cc2c[nH]c3ccccc23)NC(=O)[C@H]([C@@H](C)O)NC(=O)[C@H](C(C)C)NC(=O)[C@H](Cc2c[nH]c3ccccc23)NC(=O)[C@H](CC(N)=O)NC(=O)[C@H](CCCNC(=N)N)NC(=O)CNC(=O)[C@H](CO)NC1=O

Target: T1, Thrombospondin human platelet (Calbiochem, 605225) (human, UniProt P07996 19-1170)
T1 sequence (P07996 19-1170 limits assumed): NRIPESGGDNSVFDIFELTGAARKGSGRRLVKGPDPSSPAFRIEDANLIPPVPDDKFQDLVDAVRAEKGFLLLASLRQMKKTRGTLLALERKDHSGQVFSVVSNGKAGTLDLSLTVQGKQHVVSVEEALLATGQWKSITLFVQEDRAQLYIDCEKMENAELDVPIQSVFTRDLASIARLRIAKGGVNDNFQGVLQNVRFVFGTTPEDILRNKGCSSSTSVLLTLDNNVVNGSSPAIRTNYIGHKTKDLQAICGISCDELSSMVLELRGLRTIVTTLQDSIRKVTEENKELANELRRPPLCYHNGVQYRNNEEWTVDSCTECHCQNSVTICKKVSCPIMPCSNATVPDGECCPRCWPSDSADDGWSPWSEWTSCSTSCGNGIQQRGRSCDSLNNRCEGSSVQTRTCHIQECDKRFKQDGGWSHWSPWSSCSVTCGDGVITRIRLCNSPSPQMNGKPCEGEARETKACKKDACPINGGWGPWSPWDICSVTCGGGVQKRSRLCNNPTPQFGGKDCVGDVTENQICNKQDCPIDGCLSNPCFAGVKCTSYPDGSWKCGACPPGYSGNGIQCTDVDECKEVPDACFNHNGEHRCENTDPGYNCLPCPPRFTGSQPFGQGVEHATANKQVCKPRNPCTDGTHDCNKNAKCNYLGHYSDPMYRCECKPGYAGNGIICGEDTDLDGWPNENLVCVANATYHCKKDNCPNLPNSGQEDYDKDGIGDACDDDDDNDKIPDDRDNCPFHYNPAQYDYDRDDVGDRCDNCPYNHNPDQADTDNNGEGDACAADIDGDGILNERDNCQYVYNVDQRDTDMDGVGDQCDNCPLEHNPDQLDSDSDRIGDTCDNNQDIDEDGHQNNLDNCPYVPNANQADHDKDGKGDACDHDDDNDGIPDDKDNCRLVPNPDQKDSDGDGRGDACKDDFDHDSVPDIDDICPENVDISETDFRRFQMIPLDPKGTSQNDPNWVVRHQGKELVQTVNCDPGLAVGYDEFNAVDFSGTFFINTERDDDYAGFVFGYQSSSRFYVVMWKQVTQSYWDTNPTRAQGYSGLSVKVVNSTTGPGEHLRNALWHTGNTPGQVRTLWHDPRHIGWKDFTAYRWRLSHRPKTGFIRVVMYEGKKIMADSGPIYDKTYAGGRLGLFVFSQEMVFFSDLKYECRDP
Experiment: cell-based or functional assay

Binder	Cell adhesion IC50 [nM]
B1	15
B2	3.9
B3	12.4
B4	25.1
B5	29.9
B6	19.5
B7	15.5
B8	23.8
B9	15.8

Target: T1, Thrombospondin human platelet …
Experiment: cell-based or functional assay
Remark: another data set of the same source

Binder	Cell adhesion IC50 [nM]
B10	33.8
{CH2CO}-[2Nal]ISG[HCt]DW[Nle]KWVC-NH2 (thioether N-12; reading uncertain) [Compound 74]	20.7
{CH2CO}-[2Nal]ISG[MS]DW[Nle]KWVC-NH2 (thioether N-12; reading uncertain) [Compound 67]	12.7
{CH2CO}-[2Nal]ISG[3Hyp]NW[Nle]HWVC-NH2 (thioether N-12) [Compound 69]	27.9
B11	30.6
